# Data from the supplement of paper PMC10567573.
# B1: MATN2 (parent)
# chain: VNVPGSFVCQCYSGYALAEDGKRC
# Variants of: B1
# Assay: protein stability index of a GFP-peptide fusion (GPS, HEK-293T) (PSI 1-6); higher = more stable
# Details: c terminus: a fixed tail appended
# 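Further: lentivirally expressed fusions sorted by FACS into six bins by GFP to DsRed ratio, PSI derived from sequencing read proportions per bin multiplied by bin number.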
row,Variant,protein stability index
1,VNVPGSFVCQCYSGYAFAEDGKRC [L17F],1.03
2,VNVPGSFVCQCYSGYANAEDGKRC [L17N],1.91
3,VNVPGSFVCQCYSGYADAEDGKRC [L17D],2.51
4,VNVPGSFVCQCYSGYAIAEDGKRC [L17I],1.67
5,VNVPGSFVCQCYSGYARAEDGKRC [L17R],2.54
6,VNVPGSFVCQCYSGYASAEDGKRC [L17S],1.57
7,VNVPGSFVCQCYSGYAGAEDGKRC [L17G],2.04
8,VNVPGSFVCQCYSGYAQAEDGKRC [L17Q],2.26
9,VNVPGSFVCQCYSGYAWAEDGKRC [L17W],1.92
10,VNVPGSFVCQCYSGYAVAEDGKRC [L17V],2.3
11,VNVPGSFVCQCYIGYALAEDGKRC [S13I],1.62
12,VNVPGSFVCQCYEGYALAEDGKRC [S13E],2.1
13,VNVPGSFVCQCYGGYALAEDGKRC [S13G],2.33
14,VNVPGSFVCQCYVGYALAEDGKRC [S13V],1.32
15,VNVPGSFVCQCYNGYALAEDGKRC [S13N],2.45
16,VNVPMSFVCQCYSGYALAEDGKRC [G5M],1.47
17,VNVPESFVCQCYSGYALAEDGKRC [G5E],1.79
18,VNVPCSFVCQCYSGYALAEDGKRC [G5C],2.68
19,VNVPPSFVCQCYSGYALAEDGKRC [G5P],2.31
20,VNVPWSFVCQCYSGYALAEDGKRC [G5W],4.67
21,VNVPNSFVCQCYSGYALAEDGKRC [G5N],1.75
22,VNVPYSFVCQCYSGYALAEDGKRC [G5Y],1.2
23,VNVPVSFVCQCYSGYALAEDGKRC [G5V],1.17
24,VNVPDSFVCQCYSGYALAEDGKRC [G5D],2.06

row,Variant,protein stability index
1,VNVPISFVCQCYSGYALAEDGKRC [G5I],1.45
2,VNVPHSFVCQCYSGYALAEDGKRC [G5H],2.6
3,VNVPSSFVCQCYSGYALAEDGKRC [G5S],1.91
4,VNVPGSFVCQCDSGYALAEDGKRC [Y12D],4.36
5,VNVPGSFVCQCNSGYALAEDGKRC [Y12N],1.98
6,VNVPGSFVCQCSSGYALAEDGKRC [Y12S],2.64
7,VNVPGSFVCQCWSGYALAEDGKRC [Y12W],2.62
8,VNVPGSFVCQCQSGYALAEDGKRC [Y12Q],1.76
9,VNVPGSFVCQCVSGYALAEDGKRC [Y12V],2.13
10,VNVPGSFVCQCISGYALAEDGKRC [Y12I],1.36
11,VNVPGSFVCQCYSGYALAEMGKRC [D20M],1.72
12,VNVPGSFVCQCYSGYALAEIGKRC [D20I],2.81
13,VNVPGSFVCQCYSGYALAEEGKRC [D20E],1.85
14,VNVPGSFVCQCYSGYALAEYGKRC [D20Y],1.05
15,VNVPGSFVCQCYSGYALAEHGKRC [D20H],2.1
16,VNVPGSFVCQCYSGYALAEPGKRC [D20P],2.42
17,VNVPGSFVCQCYSGYALAENGKRC [D20N],1.34
18,VNVPGSFVCQCYSGYALAEKGKRC [D20K],1.65
19,VNVPGSFVCQCYSGYALAELGKRC [D20L],1.11
20,VNVPGSFVCQCYSGYALAEQGKRC [D20Q],1.37
21,VNVPGSFVCQCYSGYALAEAGKRC [D20A],1.9
22,VNVPGSFVCQCYSGYALAEDIKRC [G21I],1.99
23,VNVPGSFVCQCYSGYALAEDPKRC [G21P],2.38
24,VNVPGSFVCQCYSGYALAEDDKRC [G21D],2.43

row,Variant,protein stability index
1,VNVPGSFVCQCYSGYALAEDFKRC [G21F],1.58
2,VNVPGSFVCQCYSGYALAEDLKRC [G21L],2.7
3,VNVPGSFVCQCYSGYALAEDMKRC [G21M],3.7
4,VNVPGSFVCQCYSGYALAEDKKRC [G21K],2.03
5,VNVPGSFVCQCYSGYALAEDQKRC [G21Q],2.75
6,VNVPGSFVCQCYSGYALAEDAKRC [G21A],2
7,VNVPGSFVCQCYSGYALAEDYKRC [G21Y],2.18
8,VNVPGSFVCQRYSGYALAEDGKRC [C11R],3.32
9,VNVPGSFVCQPYSGYALAEDGKRC [C11P],2.42
10,VNVPGSFVCQTYSGYALAEDGKRC [C11T],2.43
11,VNVPGSFVCQVYSGYALAEDGKRC [C11V],1.7
12,VNVPGSFVCQKYSGYALAEDGKRC [C11K],2.87
13,VNVPGSFVCQAYSGYALAEDGKRC [C11A],3.12
14,VNVPGSFVCQNYSGYALAEDGKRC [C11N],2.97
15,VNVPGSFVCQYYSGYALAEDGKRC [C11Y],2.1
16,VNEPGSFVCQCYSGYALAEDGKRC [V3E],1.19
17,VNAPGSFVCQCYSGYALAEDGKRC [V3A],1.49
18,VNRPGSFVCQCYSGYALAEDGKRC [V3R],2.05
19,VNLPGSFVCQCYSGYALAEDGKRC [V3L],2.35
20,VNFPGSFVCQCYSGYALAEDGKRC [V3F],1.69
21,VNQPGSFVCQCYSGYALAEDGKRC [V3Q],2.26
22,VNDPGSFVCQCYSGYALAEDGKRC [V3D],2.11
23,VNMPGSFVCQCYSGYALAEDGKRC [V3M],2.21
24,VNVPGSFVCQCYSGSALAEDGKRC [Y15S],3.02

row,Variant,protein stability index
1,VNVPGSFVCQCYSGTALAEDGKRC [Y15T],2.33
2,VNVPGSFVCQCYSGMALAEDGKRC [Y15M],2.19
3,VNVPGSFVCQCYSGPALAEDGKRC [Y15P],2.81
4,VNVPGSFVCQCYSGIALAEDGKRC [Y15I],2.23
5,VNVPGSFVCQCYSGGALAEDGKRC [Y15G],2.14
6,VNVPGSFVCQCYSGDALAEDGKRC [Y15D],2.03
7,VNVPGSFVCQCYSGRALAEDGKRC [Y15R],2
8,VNVPGSFVSQCYSGYALAEDGKRC [C9S],3.15
9,VNVPGSFVIQCYSGYALAEDGKRC [C9I],1.5
10,VNVPGSFVVQCYSGYALAEDGKRC [C9V],2.32
11,VNVPGSFVLQCYSGYALAEDGKRC [C9L],2.05
12,VNVPGSFVRQCYSGYALAEDGKRC [C9R],2.69
13,VNVPGSFVMQCYSGYALAEDGKRC [C9M],2.28
14,VNVPGSFVNQCYSGYALAEDGKRC [C9N],3.12
15,VNVPGSFVEQCYSGYALAEDGKRC [C9E],3.33
16,VNVPGSFVAQCYSGYALAEDGKRC [C9A],1.81
17,VNVPGSFVCFCYSGYALAEDGKRC [Q10F],2.64
18,VNVPGSFVCDCYSGYALAEDGKRC [Q10D],2.47
19,VNVPGSFVCYCYSGYALAEDGKRC [Q10Y],1.97
20,VNVPGSFWCQCYSGYALAEDGKRC [V8W],3.21
21,VNVPGSFECQCYSGYALAEDGKRC [V8E],2.53
22,VNVPGSFSCQCYSGYALAEDGKRC [V8S],3.19
